The values that follow come from paper doi:10.1101/2024.12.02.626503 (bioRxiv, 2024).

This assay addresses CaM WT (UniProt P0DP23 1-149). The assay can be described thus: fluorescence polarisation. Background: Polarisation of emitted light reports the rotation of a fluorescent probe.

The star is where a group is joined. 5‑TAMRA = CN(C)c1ccc2c(-c3ccc(C(=O)*)cc3C(=O)[O-])c3ccc(N(C)C)cc3[o+]c2c1

B1: 5-TAMRA-labeled CaV1.3 IQ peptide (peptide)
peptide: not shown
modifications: 5-TAMRA on the N-terminus; C-terminal amide (NH2)
B1: the binding result is listed as “binds”.

B2: 5-TAMRA-labeled CaV2.1 IQ peptide (peptide)
peptide: {5‑TAMRA}-TDLTVGKIYAAMMIMEYYRQSKAKKLQAMREEQD-NH2
SMILES: CC[C@H](C)[C@H](NC(=O)[C@H](CCCCN)NC(=O)CNC(=O)[C@@H](NC(=O)[C@@H](NC(=O)[C@H](CC(C)C)NC(=O)[C@H](CC(=O)O)NC(=O)[C@@H](NC(=O)c1ccc(-c2c3ccc(N(C)C)cc3[o+]c3cc(N(C)C)ccc23)c(C(=O)[O-])c1)[C@@H](C)O)[C@@H](C)O)C(C)C)C(=O)N[C@@H](Cc1ccc(O)cc1)C(=O)N[C@@H](C)C(=O)N[C@@H](C)C(=O)N[C@@H](CCSC)C(=O)N[C@@H](CCSC)C(=O)N[C@H](C(=O)N[C@@H](CCSC)C(=O)N[C@@H](CCC(=O)O)C(=O)N[C@@H](Cc1ccc(O)cc1)C(=O)N[C@@H](Cc1ccc(O)cc1)C(=O)N[C@@H](CCCNC(=N)N)C(=O)N[C@@H](CCC(N)=O)C(=O)N[C@@H](CO)C(=O)N[C@@H](CCCCN)C(=O)N[C@@H](C)C(=O)N[C@@H](CCCCN)C(=O)N[C@@H](CCCCN)C(=O)N[C@@H](CC(C)C)C(=O)N[C@@H](CCC(N)=O)C(=O)N[C@@H](C)C(=O)N[C@@H](CCSC)C(=O)N[C@@H](CCCNC(=N)N)C(=O)N[C@@H](CCC(=O)O)C(=O)N[C@@H](CCC(=O)O)C(=O)N[C@@H](CCC(N)=O)C(=O)N[C@@H](CC(=O)O)C(N)=O)[C@@H](C)CC
B2: the binding result is on record as “binds”.
